From article PMC4510971

Experiments:
Assay in all cases: ITC; 0.450 mM UBN1 injected into a cell with 30 μM H3/H4, 22 °C; 20 mM HEPES pH 7.5, 750 mM NaCl, 1 mM TCEP
[1] = target: Asf1(1–169)/H3.3(60–135)/H4(20–102) (S. cerevisiae | X. laevis) (UniProt P32447)
[2] = target: H3.3(G90M)/H4 (human | X. laevis) (UniProt P62799)
[3] = target: H3.3(SAVM)/H4 (human | X. laevis) (UniProt P84243)

Chain of UBN1(122–148) peptide (Q9NPG3 122-148): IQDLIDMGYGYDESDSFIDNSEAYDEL

Kd [1]: 110 µM
fold decrease in binding relative to H3.3 WT [2]: 3 fold
fold decrease in binding relative to H3.3 WT [3]: 3 fold
Substance: UBN1(122–148) peptide (from UniProt Q9NPG3 122-148)
